T1: SF3B2 peptide R508me0 (unmodified) (UniProt Q13435)
T1 chain: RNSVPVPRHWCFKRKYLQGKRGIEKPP


Target: T1, SF3B2 peptide R508me0 (unmodified)
Test: EMSA; R508me0; RNA 1 uM, peptide 1.4-140 uM; 20 mM Tris-HCl pH 8.0, 150 mM NaCl, 1.5 mM MgCl2, 0.5 mM EDTA, 100 U/mL RNasin, room temperature, 20 min; 6% native gel in 0.5x TBE
Conditions: label: 5' 6-FAM

| Binder | binding result |
| --- | --- |
| CAUAGAAAAAAGUUAAGUUAA (ssRNA) [Stag2 upstream probe A (nonconsensus anchoring site)] | binds |
| UAAUAGUCAUGCCUUGGUUCA (ssRNA) [Stag2 downstream probe B (consensus anchoring site)] | binds |

Source: publication PMC10984984, “Loss-of-function mutation in PRMT9 causes abnormal synapse development by dysregulation of RNA alternative splicing”
